Results on two variants are retold here after IntAct's records for PubMed 18769030.

B1: Solute carrier family 12 member 5 (Rattus norvegicus (Rat)), Q63633 (parent)
chain: MSRRFTVTSLPPAASAASADPESRRHSVADPRRLPREDVKGDGNPKESSPFINSTDTEKGREYDGRNMALFEEEMDTSPMVSSLLSGLANYTNLPQGSKEHEEAENNEGGKKKPVQAPRMGTFMGVYLPCLQNIFGVILFLRLTWVVGIAGIMESFCMVFICCSCTMLTAISMSAIATNGVVPAGGSYYMISRSLGPEFGGAVGLCFYLGTTFAGAMYILGTIEILLAYLFPAMAIFKAEDASGEAAAMLNNMRVYGTCVLTCMATVVFVGVKYVNKFALVFLGCVILSILAIYAGVIKSAFDPPNFPICLLGNRTLSRHGFDVCAKLAWEGNETVTTRLWGLFCSSRLLNATCDEYFTRNNVTEIQGIPGAASGLIKENLWSSYLTKGVIVERRGMPSVGLADGTPVDMDHPYVFSDMTSYFTLLVGIYFPSVTGIMAGSNRSGDLRDAQKSIPTGTILAIATTSAVYISSVVLFGACIEGVVLRDKFGEAVNGNLVVGTLAWPSPWVIVIGSFFSTCGAGLQSLTGAPRLLQAISRDGIVPFLQVFGHGKANGEPTWALLLTACICEIGILIASLDEVAPILSMFFLMCYMFVNLACAVQTLLRTPNWRPRFRYYHWTLSFLGMSLCLALMFICSWYYALVAMLIAGLIYKYIEYRGAEKEWGDGIRGLSLSAARYALLRLEEGPPHTKNWRPQLLVLVRVDQDQNVVHPQLLSLTSQLKAGKGLTIVGSVLEGTFLDNHPQAQRAEESIRRLMEAEKVKGFCQVVISSNLRDGVSHLIQSGGLGGLQHNTVLVGWPRNWRQKEDHQTWRNFIELVRETTAGHLALLVTKNVSMFPGNPERFSEGSIDVWWIVHDGGMLMLLPFLLRHHKVWRKCKMRIFTVAQMDDNSIQMKKDLTTFLYHLRITAEVEVVEMHESDISAYTYEKTLVMEQRSQILKQMHLTKNEREREIQSITDESRGSIRRKNPANTRLRLNVPEETACDNEEKPEEEVQLIHDQSAPSCPSSSPSPGEEPEGEGETDPEKVHLTWTKDKSAAQKNKGPSPVSSEGIKDFFSMKPEWENLNQSNVRRMHTAVRLNEVIVNKSRDAKLVLLNMPGPPRNRNGDENYMEFLEVLTEQLDRVMLVRGGGREVITIYS

The variants in the first assay derive from B1. To be noted: with mycb2_mouse Mycbp2, Q7TPH6.
mycb2_mouse Mycbp2, Q7TPH6, sequence (Q7TPH6 whole entry): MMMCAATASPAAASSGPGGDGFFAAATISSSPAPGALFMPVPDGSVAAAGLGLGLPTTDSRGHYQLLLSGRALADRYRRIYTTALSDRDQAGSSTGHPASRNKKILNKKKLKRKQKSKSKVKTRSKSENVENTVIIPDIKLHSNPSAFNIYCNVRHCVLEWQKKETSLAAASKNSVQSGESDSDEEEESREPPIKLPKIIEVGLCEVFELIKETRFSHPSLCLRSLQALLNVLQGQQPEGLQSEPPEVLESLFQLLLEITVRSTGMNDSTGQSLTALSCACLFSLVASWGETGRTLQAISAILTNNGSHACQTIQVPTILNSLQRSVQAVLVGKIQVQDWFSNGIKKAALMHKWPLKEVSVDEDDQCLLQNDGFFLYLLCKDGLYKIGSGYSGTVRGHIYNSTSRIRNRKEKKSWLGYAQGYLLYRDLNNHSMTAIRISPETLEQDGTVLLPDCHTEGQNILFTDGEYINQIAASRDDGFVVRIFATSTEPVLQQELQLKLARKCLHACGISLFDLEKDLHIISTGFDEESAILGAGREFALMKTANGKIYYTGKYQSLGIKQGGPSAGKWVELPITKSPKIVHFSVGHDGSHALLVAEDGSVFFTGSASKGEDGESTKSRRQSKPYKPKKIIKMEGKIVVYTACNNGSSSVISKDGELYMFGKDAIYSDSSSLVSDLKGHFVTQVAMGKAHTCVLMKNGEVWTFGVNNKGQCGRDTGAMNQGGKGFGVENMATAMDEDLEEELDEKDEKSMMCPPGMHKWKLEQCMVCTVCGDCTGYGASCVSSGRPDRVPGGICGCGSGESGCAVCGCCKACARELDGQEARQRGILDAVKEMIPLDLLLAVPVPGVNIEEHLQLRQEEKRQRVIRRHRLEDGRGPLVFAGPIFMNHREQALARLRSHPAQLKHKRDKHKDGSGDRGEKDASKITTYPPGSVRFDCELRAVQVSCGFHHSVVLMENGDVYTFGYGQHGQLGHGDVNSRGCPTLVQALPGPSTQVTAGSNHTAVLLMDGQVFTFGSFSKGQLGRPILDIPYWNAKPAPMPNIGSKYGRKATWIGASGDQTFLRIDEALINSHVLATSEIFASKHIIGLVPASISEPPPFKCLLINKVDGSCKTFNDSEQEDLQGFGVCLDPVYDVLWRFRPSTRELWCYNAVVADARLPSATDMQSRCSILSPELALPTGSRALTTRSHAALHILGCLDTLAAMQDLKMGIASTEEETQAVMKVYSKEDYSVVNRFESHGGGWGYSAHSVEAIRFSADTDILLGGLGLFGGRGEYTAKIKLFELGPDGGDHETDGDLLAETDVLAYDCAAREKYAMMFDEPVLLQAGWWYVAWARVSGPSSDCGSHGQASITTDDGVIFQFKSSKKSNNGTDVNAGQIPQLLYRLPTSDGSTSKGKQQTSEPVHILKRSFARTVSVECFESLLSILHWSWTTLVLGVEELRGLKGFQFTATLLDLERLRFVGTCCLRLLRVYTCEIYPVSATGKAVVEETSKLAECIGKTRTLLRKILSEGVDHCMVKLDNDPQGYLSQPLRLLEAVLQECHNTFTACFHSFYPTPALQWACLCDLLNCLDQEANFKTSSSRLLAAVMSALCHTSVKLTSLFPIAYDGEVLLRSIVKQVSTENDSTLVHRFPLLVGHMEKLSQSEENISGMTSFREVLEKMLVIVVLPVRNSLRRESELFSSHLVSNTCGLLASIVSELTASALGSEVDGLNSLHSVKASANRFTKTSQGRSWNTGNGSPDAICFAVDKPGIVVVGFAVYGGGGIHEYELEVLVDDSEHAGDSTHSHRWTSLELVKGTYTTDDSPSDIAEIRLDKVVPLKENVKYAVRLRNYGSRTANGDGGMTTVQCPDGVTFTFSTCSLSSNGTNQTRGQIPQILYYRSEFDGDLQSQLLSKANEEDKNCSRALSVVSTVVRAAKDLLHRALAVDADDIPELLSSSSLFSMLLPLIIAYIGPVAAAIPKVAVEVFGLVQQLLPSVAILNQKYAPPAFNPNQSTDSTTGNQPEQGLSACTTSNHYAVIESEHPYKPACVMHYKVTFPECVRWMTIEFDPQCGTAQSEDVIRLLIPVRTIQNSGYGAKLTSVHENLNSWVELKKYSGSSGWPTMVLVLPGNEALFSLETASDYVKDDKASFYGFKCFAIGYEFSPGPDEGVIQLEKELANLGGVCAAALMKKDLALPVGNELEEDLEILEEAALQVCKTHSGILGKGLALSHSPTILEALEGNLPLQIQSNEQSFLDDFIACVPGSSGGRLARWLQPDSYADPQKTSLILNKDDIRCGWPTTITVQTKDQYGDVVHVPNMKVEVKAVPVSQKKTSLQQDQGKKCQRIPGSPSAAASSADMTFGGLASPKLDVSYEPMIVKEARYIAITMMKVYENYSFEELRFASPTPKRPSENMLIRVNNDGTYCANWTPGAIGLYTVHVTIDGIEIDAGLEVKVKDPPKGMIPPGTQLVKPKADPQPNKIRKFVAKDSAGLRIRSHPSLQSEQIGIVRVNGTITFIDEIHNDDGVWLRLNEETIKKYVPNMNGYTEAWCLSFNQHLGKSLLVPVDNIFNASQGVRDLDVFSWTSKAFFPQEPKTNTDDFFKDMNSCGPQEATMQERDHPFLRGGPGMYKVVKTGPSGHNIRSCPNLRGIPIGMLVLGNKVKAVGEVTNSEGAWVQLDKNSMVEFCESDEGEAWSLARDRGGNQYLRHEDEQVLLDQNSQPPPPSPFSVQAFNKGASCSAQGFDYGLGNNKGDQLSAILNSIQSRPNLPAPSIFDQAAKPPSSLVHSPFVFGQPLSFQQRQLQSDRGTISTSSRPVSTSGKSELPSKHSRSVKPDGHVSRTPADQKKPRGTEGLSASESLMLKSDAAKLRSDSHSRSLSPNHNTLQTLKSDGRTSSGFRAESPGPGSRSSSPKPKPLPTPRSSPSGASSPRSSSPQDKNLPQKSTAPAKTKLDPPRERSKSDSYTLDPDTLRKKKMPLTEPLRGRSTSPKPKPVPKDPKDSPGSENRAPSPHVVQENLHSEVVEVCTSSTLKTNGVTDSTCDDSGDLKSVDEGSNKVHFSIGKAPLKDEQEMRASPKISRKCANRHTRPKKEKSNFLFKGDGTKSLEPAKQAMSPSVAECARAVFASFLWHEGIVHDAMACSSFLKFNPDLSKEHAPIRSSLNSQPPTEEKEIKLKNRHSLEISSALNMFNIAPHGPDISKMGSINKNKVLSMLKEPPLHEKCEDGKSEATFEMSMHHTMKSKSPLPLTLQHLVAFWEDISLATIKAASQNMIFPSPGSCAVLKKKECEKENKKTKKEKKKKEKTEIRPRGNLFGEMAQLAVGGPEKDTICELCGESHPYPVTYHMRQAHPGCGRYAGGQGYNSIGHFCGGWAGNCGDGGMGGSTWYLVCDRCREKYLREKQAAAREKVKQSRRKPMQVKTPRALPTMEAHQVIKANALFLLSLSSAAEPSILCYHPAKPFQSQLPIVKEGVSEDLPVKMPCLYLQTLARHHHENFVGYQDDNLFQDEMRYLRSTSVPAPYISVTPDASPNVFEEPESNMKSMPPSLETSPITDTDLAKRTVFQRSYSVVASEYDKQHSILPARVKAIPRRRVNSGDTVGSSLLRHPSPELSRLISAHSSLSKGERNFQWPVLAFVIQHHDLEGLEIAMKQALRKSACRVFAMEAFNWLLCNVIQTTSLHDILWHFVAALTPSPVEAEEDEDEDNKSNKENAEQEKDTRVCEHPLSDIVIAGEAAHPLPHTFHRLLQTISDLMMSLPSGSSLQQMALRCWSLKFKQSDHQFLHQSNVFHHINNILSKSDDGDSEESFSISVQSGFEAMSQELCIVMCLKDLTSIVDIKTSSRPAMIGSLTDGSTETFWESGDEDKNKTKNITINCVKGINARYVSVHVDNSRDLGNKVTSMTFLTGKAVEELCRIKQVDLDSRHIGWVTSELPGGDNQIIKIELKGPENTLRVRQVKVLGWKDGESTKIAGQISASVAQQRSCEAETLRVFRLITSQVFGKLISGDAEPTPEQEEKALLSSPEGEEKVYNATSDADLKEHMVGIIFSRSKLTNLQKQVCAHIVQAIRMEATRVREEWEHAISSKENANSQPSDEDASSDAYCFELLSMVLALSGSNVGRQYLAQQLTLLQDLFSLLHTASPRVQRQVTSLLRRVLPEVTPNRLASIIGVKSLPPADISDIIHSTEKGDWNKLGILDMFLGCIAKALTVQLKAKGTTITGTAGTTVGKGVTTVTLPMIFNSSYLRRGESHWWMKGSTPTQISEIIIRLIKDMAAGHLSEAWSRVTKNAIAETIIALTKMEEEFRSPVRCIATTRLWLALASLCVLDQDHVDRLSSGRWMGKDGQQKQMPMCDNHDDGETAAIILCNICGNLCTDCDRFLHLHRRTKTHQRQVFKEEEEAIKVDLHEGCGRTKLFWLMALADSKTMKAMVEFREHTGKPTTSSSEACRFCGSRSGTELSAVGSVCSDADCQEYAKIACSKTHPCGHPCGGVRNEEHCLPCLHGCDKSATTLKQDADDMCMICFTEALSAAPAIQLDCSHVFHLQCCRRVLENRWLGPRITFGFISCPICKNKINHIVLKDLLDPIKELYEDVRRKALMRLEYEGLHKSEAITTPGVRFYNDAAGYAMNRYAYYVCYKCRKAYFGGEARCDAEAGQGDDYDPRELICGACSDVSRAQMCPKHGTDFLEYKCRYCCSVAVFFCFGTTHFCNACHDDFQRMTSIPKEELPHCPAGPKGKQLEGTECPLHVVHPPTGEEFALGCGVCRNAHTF
Turning to N1105E, the “effect of a mutation on the interaction” value is “disrupting interaction”.
As for R1104A, the “effect of a mutation on the interaction” value is listed as “disrupting interaction”.

The next assay covers variants of B1. To be noted: with mycb2_mouse Mycbp2, Q7TPH6. This is another data set of the same source.
For R1104A, the “effect of a mutation on the interaction” value was “decreasing interaction”.
